The target of this experiment is C-terminus of human Hsp90α (residues 566-732) (Homo sapiens (Human), UniProt P07900). The experiment is described as follows: SEC-MALS-QELS.
Chain of C-terminus of human Hsp90α (residues 566-732) (P07900 566-732): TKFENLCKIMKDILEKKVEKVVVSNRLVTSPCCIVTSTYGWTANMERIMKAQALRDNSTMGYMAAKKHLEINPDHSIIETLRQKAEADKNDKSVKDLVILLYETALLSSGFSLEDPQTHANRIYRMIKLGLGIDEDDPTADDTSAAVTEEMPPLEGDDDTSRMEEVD

B1: Sorghum bicolor RPAP3 (RNA polymerase II-associated protein 3), isoform 2 (protein)
chain: MEYKARSSGTSGTSTKSFRDLYNMKYSSYLNDEPMPDATSEKEQGNEYFKQKKFADAIECYSRSIGLSPTAVTFANRAMAYLKLRRFKEAEDDCTEALNLDDRYIKAYSRRITARKELGKLKEAMEDAEFAISLDPNNPELRKQYSEIKALHMEKMAKKVPAPAKRAVSGIAKTADVTSHPPTISQKDTIMEVDPPVGDAMKIRESASGRSNGGSGVIINDNTIQTQGRDANLKPGPEVSVQDLAARAASRYMASTVKSVKTPKTAYDFEVSWRALSDDTAQQIQLLKSIPPASLPEIFKNALSAPFLIDIVKCSASIFRDDTALAVSILENLARVPRFDLIIMCLSSMHKSELRKIWDQVFLAEKASADDQMEALRQLRGRYIPGGWQDSMLTSS
For the molecule B1, the binding result was “binds”.

Source of the values: publication PMC10458388 (2023).
